# Experimental data as given in US20260217863A1 (UIF UNIVERSITY INDUSTRY FOUNDATION YONSEI UNIVERSITY, published 2026).
# Substitutions are numbered along the chain they refer to.
# T1: Ribonuclease A (Type II-A) from bovine pancreas (bovine, UniProt P61823 27-150)
# T1 sequence (looked up): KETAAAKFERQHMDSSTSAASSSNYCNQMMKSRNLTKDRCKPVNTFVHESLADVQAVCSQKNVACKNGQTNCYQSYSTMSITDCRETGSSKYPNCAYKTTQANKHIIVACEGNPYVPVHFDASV
# B1: Fv-3, expressed soluble Fv antibody of clone 39 (His-tag-TdTomato-VH) (other)
# chain: EVQLVESAAEVRRPGASVKITCKASGYSFSTYGIQWMRQAPGQRPEWLGWIHAGTGGTKYSRKFQGRITITRDTSANTVYLDLNSLTSEDTAVYYCARDGTAKKSRKDDWGQGTTVTVSS
# notes: Fusion protein made in E. coli; 69.2 kDa; No light chain; not shown: His-tag; TdTomato fluorescent protein
# B2: Peptide-1, synthetic peptide with the CDR3 sequence of the screened clone (peptide)
# peptide: CGPDSDVMTDF
# notes: Bought from Peptron, 90% purity; Peptide-1 is tied to the CDR3 of clone 5 / Fv-1 by the order of the names only; also called peptides-1
# B3: Fv-1, expressed soluble Fv antibody of clone 5 (His-tag-TdTomato-VH) (other)
# chain: B1 chain with D99C, T101P, A102D, K103S, K104D, S105V, R106M, K107T, D109F
# notes: Fusion protein made in E. coli from a recombinant plasmid (pJS001 to pJS003, not tied one by one); molecular weight estimated 69.2 kDa; No light chain; also called expressed Fv antibody; TdTomato-labeled Fv antibody; not shown: His-tag; TdTomato fluorescent protein
# B4: Fv-2, expressed soluble Fv antibody of clone 23 (His-tag-TdTomato-VH) (other)
# chain: B1 chain with D99Y, T101P, A102V, K103G, K104R, S105V, R106K, K107R
# notes: as for B1
# Molecular target: T1, Ribonuclease A (Type II-A) from bovine …
# Assay: cell-based or functional assay
Binder,"IC50 (RNase A activity after treatment with Fv-3 beads, 1/10 diluted Pig Swab, RNase A 10 ng, RNA gel)","IC50 (RNase A activity after treatment with Fv-3 beads, 1/10 diluted Saliva Swab, RNase A 10 ng, RNA gel)","IC50 (RNase A activity after treatment with Fv-3 beads, 1/10 diluted Serum, RNase A 10 ng, RNA gel)"
B1,632 nM,838 nM,1010 nM

# Molecular target: T1, Ribonuclease A (Type II-A) from bovine …
# Assay: SPR, RNase A immobilized on the Au chip, fit of SPR signal against peptide concentration. The label is unnamed: it is printed in the light grey of the Peptide-1 marker at the top end of that curve, and agrees with the 1.3 ± 0.1 µM of the text.
# Method: RNase A was immobilized on the gold surface of the SPR chip used in the SPR biosensor to conduct the binding analysis. For the manufacture of the SPR chip, a 2 nm thick titanium adhesive layer and a 48 nm thick gold surface were consecutively sputter-coated onto BK-7 glass (1×1 cm²). […] To analyze the binding of the expressed Fv antibody to RNase A, Fv antibodies in the concentration range of 0.37-100 nM were reacted using PBS buffer as the […] through association (10 minutes), equilibrium (5 minutes), and dissociation (10 minutes) steps. The washing buffer and total SPR measurements were performed at a flow rate of 15 μL/min. […]
# Using the screened CDR3 amino acid sequences, the CDR3 regions of the screened Fv antibodies were synthesized as peptides, and the amino acid sequences were determined from the nucleotide sequences of the CDR3 regions as summarized in Table 7. […] The SPR signal was plotted according to the concentration of the synthetic peptides, and the affinity constants (KD) of these synthetic peptides were calculated through a fitting process.
row,Binder,Kd
1,B2,1350 nM

# Molecular target: T1, Ribonuclease A (Type II-A) from bovine …
# Assay: SPR biosensor, RNase A immobilized on the Au chip, peptide in solution
# Method: (§1) Binding analysis of the expressed FV antibody and synthesized peptides against RNase A was performed using an SPR (Surface Plasmon Resonance) biosensor from I-Cluebio (Seongnam, Korea). RNase A was immobilized on the gold surface of the SPR chip used in the SPR biosensor to conduct the binding analysis. For the manufacture of the SPR chip, a 2 nm thick titanium adhesive layer and a 48 nm thick gold surface were consecutively sputter-coated onto BK-7 glass (1×1 cm²). […] To analyze the binding of the expressed Fv antibody to RNase A, Fv antibodies in the concentration range of 0.37-100 nM were reacted using PBS buffer as the […] through association (10 minutes), equilibrium (5 minutes), and dissociation (10 minutes) steps. The washing buffer and total SPR measurements were performed at a flow rate of 15 μL/min. For the binding analysis of the synthesized peptides against RNase A, peptides in the concentration range of 0.37-100 nM were reacted using PBS buffer as the washing buffer through association (10 minutes), equilibrium (5 minutes), and dissociation (10 minutes) steps, and total SPR measurements were conducted at a flow rate of 15 μL/min.
# Using the screened CDR3 amino acid sequences, the CDR3 regions of the screened Fv antibodies were synthesized as peptides, and the amino acid sequences were determined from the nucleotide sequences of the CDR3 regions as summarized in Table 7. These synthetic peptides (Peptide-1, Peptide-2, Peptide-3) and Fv antibodies (Fv-1, Fv-2, Fv-3) were identical to the amino acid sequences of the CDR3 regions of the screened clones. The expression of the Fv antibodies was confirmed using SDS-PAGE, and the molecular weight of the Fv antibodies was estimated to be 69.2 kDa as shown in FIG. 9. The affinity constant (KD) of the synthetic peptides and the expressed Fv antibodies against RNase A was estimated using an SPR biosensor.
row,Binder,Kd
1,"YGPVGRVKRDD (also called peptides-2) [Peptide-2, synthetic peptide with the CDR3 sequence of the screened clone]",1300 nM
2,"DGTAKKSRKDD (also called peptides-3) [Peptide-3, synthetic peptide with the CDR3 sequence of the screened clone]",3700 nM
3,B2,1300 nM

# Molecular target: T1, Ribonuclease A (Type II-A) from bovine …
# Assay: SPR biosensor, RNase A immobilized on the Au chip, expressed Fv antibody in solution
# Method: as §1
# Using the screened CDR3 amino acid sequences, the CDR3 regions of the screened Fv antibodies were synthesized as peptides, and the amino acid sequences were determined from the nucleotide sequences of the CDR3 regions as summarized in Table 2. These synthetic peptides (Peptide-1, Peptide-2, Peptide-3) and Fv antibodies (Fv-1, Fv-2, Fv-3) were identical to the amino acid sequences of the CDR3 regions of the screened clones. The expression of the Fv antibodies was confirmed using SDS-PAGE, and the molecular weight of the Fv antibodies was estimated to be 69.2 kDa as shown in FIG. 9. The affinity constants (KD) of these synthetic peptides and the expressed Fv antibodies against RNase A were estimated using an SPR biosensor.
row,Binder,Kd
1,B3,17.5 nM
2,B4,28.8 nM
3,B1,33.9 nM

# Molecular target: RNase A contained in the saliva swab actual sample
# Assay: cell-based or functional assay
row,Binder,"decrease of RNase A activity after approximately 27 minutes, cCMP assay, saliva swab actual sample, 1 µM inhibitor"
1,"YGPVGRVKRDD (also called peptides-2) [Peptide-2, synthetic peptide with the CDR3 sequence of the screened clone]",~44%
2,"DGTAKKSRKDD (also called peptides-3) [Peptide-3, synthetic peptide with the CDR3 sequence of the screened clone]",~35%
3,B2,~30%
4,B3,~42%
5,B4,~63%
6,B1,~60%

# Molecular target: RNase A contained in the pig swab actual sample (pig (sample: pig swab))
# Assay: cell-based or functional assay
row,Binder,"decrease of RNase A activity after approximately 27 minutes, cCMP assay, pig swab actual sample, 1 µM inhibitor"
1,"YGPVGRVKRDD (also called peptides-2) [Peptide-2, synthetic peptide with the CDR3 sequence of the screened clone]",~41%
2,"DGTAKKSRKDD (also called peptides-3) [Peptide-3, synthetic peptide with the CDR3 sequence of the screened clone]",~41%
3,B2,~41%
4,B3,~61%
5,B4,~49%
6,B1,~55%

# Molecular target: RNase A contained in the actual serum sample
# Assay: cell-based or functional assay
row,Binder,"decrease of RNase A activity after approximately 27 minutes, cCMP assay, serum actual sample, 1 µM inhibitor"
1,"YGPVGRVKRDD (also called peptides-2) [Peptide-2, synthetic peptide with the CDR3 sequence of the screened clone]",~55%
2,"DGTAKKSRKDD (also called peptides-3) [Peptide-3, synthetic peptide with the CDR3 sequence of the screened clone]",~60%
3,B2,~53%
4,B3,~55%
5,B4,~55%
6,B1,~52%

# Molecular target: T1, Ribonuclease A (Type II-A) from bovine …
# Assay: cell-based or functional assay
# Remark: another data set of the same source
Binder,"IC50, cCMP assay (hydrolysis of 2',3'-cyclic CMP, absorbance at 286 nM)","IC50 by linear regression, RNA probe assay","IC50 for the inhibition of RNase A activity, HeLa total RNA cleavage, agarose gel image","peptide concentration at which the RNase inhibition activity is over 50%, HeLa total RNA cleavage, agarose gel","relative inhibition level after 60 minutes, RNA probe assay (fluorophore and quencher), peptide at 1 µM","Fv-antibody concentration at which the RNase inhibitory activity is over 50%, HeLa total RNA cleavage, agarose gel","IC50, RNase activity analysis with the RNA probe","IC50 for RNase A activity inhibition, HeLa total RNA cleavage, agarose gel image, dose-response curve fitting"
"YGPVGRVKRDD (also called peptides-2) [Peptide-2, synthetic peptide with the CDR3 sequence of the screened clone]",373 nM,3600 nM,658 nM,> 1 µM,53.2%,,,
"DGTAKKSRKDD (also called peptides-3) [Peptide-3, synthetic peptide with the CDR3 sequence of the screened clone]",356 nM,400 nM,464 nM,> 1 µM,50.3%,,,
B2,607 nM,8100 nM,995 nM,> 1 µM,54.4%,,,
B3,194 nM,,,,,≥ 350 nM,90.2 nM,234 nM
B4,236 nM,,,,,≥ 350 nM,65.3 nM,366 nM
B1,196 nM,,,,,≥ 350 nM,98.8 nM,436 nM
